Key:
GST-Bicc1-KH [1] = target: T1, GST-Bicc1-KH (UniProt Q99MQ1); experiment: competition EMSA; conditions: 200 nM protein, 10 mM Tris-HCl pH 8, 100 mM KCl, 2.5 mM MgCl2, 2.5% glycerol, 1 mM DTT, 1 ug yeast tRNA in 20 uL, on ice 30 min, 1 pmol tagged RNA + 2.5 pmol DNA probe, 5% …
T1 sequence (Q99MQ1 whole entry, looked up): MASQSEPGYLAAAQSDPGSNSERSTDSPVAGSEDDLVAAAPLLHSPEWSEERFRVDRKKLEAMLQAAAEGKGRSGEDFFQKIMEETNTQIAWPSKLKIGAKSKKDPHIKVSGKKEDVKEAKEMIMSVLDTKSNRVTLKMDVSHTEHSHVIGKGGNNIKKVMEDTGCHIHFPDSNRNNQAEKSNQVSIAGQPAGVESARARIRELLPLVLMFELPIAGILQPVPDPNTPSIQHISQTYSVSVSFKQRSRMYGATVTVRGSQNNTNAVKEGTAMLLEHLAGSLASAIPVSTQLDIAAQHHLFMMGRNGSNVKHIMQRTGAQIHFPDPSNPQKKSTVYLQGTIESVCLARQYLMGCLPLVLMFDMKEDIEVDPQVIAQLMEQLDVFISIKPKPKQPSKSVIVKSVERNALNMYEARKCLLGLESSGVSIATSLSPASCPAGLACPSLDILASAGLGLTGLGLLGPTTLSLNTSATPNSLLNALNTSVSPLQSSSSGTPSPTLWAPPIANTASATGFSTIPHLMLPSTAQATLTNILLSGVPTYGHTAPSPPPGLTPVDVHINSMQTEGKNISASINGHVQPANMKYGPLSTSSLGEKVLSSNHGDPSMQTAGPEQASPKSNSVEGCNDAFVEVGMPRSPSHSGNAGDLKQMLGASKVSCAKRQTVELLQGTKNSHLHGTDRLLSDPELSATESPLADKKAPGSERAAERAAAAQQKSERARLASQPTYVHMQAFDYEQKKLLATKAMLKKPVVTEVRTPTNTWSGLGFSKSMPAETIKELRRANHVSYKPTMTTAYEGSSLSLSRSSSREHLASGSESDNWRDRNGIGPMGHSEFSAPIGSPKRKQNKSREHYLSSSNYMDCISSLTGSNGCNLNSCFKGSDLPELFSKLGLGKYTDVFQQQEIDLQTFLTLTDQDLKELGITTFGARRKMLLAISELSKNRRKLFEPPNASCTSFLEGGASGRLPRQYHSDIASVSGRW

GST-Bicc1-KH [2] = target: T1, GST-Bicc1-KH; experiment: EMSA; conditions: RNP1; apparent Kd; yeast tRNA present; 10 mM Tris-HCl pH 8, 100 mM KCl, 2.5 mM MgCl2, 2.5% glycerol, 1 mM DTT, 1 ug yeast tRNA in 20 uL, on ice 30 min; 1 pmol tagged RNA + 2.5 pmol DNA probe; 5% …

## GAAAAAGGUGACCUGAAUGAUGUGCAUCGGGUCAAGAGAGCAGAA [66-110 Mut1 (GACG to AAGG)]
GST-Bicc1-KH [1]; vs labelled 66-110
  IC50: > 1000 nM

## GAAAGACGUAAGCUGAAUGAUGUGCAUCGGGUCAAGAGAGCAGAA [66-110 Mut2 (UGAC to UAAG)]
GST-Bicc1-KH [1]; vs labelled 66-110
  IC50: 654 nM

## GAAAGACGUGACCUGAAUGAUGUGCAUCGGGUCAAGAGAGCAGAA [Dand5 3'-UTR 66-110 competitor]
GST-Bicc1-KH [1]; vs labelled 66-110
  IC50: 203 nM

## GAAAGACGUGACCUGAAUGAUGUGCAUCGGGUCAAGAGAGCAGAAUGUCUGGGCAACAGGCUCAGG / CTGAGCCTGTTGCCCAGAC [Dand5 3'-UTR 66-110 probe]
GST-Bicc1-KH [2]
  Kd: 120 nM

## GAAAGACGUGACCUGAAUGAUGUGCAUCGGGUCACGUCUUUCGAA [66-110 Stem+ (GACG masked in elongated stem)]
GST-Bicc1-KH [1]; vs labelled 66-110
  IC50: > 1000 nM

## GCUGAGCAUCCUAGAGGAAUGCGCAGGACAUGAAUGAACCUUGGCAAGAAGCAGGAGACGCAAUAGAAAGACGUGACCUGAAUGAUGUGCAUCGGGUCAAGAGAGCAGAAUUGGACAGGGCCAGAAUACUAGACAUGGUCCCCCAGUCAUGGGUUUAGACCACUAAUAGUCGUAGAAUGUGGGGCUAGGGUAUAACUCAGUGGGAGAGGGCUUGCCUAGCAUGCA [Dand5 3'-UTR 1-225 competitor]
GST-Bicc1-KH [1]; vs labelled 1-225
  IC50: 283 nM

## GCUGAGCAUCCUAGAGGAAUGCGCAGGACAUGAAUGAACCUUGGCAAGAAGCAGGAGACGCAAUAGAAAGACGUGACCUGAAUGAUGUGCAUCGGGUCAAGAGAGCAGAAUUGGACAGGGCCAGAAUACUAGACAUGGUCCCCCAGUCAUGGGUUUAGACCACUAAUAGUCGUAGAAUGUGGGGCUAGGGUAUAACUCAGUGGGAGAGGGCUUGCCUAGCAUGCAUGUCUGGGCAACAGGCUCAGG / CTGAGCCTGTTGCCCAGAC [Dand5 3'-UTR 1-225 probe]
GST-Bicc1-KH [2]
  Kd: 233 nM

## UGAACCUUGGCAAGAAGCAGGAGACGCAAUAGAAAGACGUGACCUGAAUGAUGUGCAUCGGGUCAAGAGAGCAGAAUUGGACAGGGCCAGAAUACUAGACAUGGUCCCCCAGUCAUGGGUUUA [Dand5 3'-UTR 35-157 competitor]
GST-Bicc1-KH [1]; vs labelled 35-157
  IC50: 191 nM

## UGAACCUUGGCAAGAAGCAGGAGACGCAAUAGAAAGACGUGACCUGAAUGAUGUGCAUCGGGUCAAGAGAGCAGAAUUGGACAGGGCCAGAAUACUAGACAUGGUCCCCCAGUCAUGGGUUUAUGUCUGGGCAACAGGCUCAGG / CTGAGCCTGTTGCCCAGAC [Dand5 3'-UTR 35-157 probe]
GST-Bicc1-KH [2]
  Kd: 120 nM

## UGAAGACGUGACUUCUAUUCGUAUGUGAUAUGUGGAGGUUAAAAA [226-270 8-mer (GCCCUGGG to GACGUGAC)]
GST-Bicc1-KH [1]; vs labelled 66-110
  IC50: 392 nM

## UGAAGCCCUGGGUUCUAUUCGUAUGUGAUAUGUGGAGGUUAAAAAAAGGUGAAAAUUAGCUAUAGUGUAUGAUUAGCCCUGUGUGAGAGGGAACAUUCAUGCCACAAUCACUAACUCACGUCCUCCUCAGGAAUCCUCAGCAGUCCCGCAAGGUAGAAUUUCACCAUGGGUCAUUUUACAGAUGAGGAAACCGAAGCUAU [Dand5 3'-UTR 226-425 (distal) competitor]
GST-Bicc1-KH [1]; vs labelled 1-225
  IC50: > 1000 nM
